Assay results as given in paper PMC12815461 (2026).

B1: FLAG-tagged wild-type GMCL1 (germ cell-less protein-like 1) [human] / 53BP1 (p53-binding protein 1), endogenous in HEK293T [human (endogenous in HEK293T)] (parent complex)
chain 1: MGSLSSRVLRQPRPALAQQAQGARAGGSARRPDTGDDAAGHGFCYCAGSHKRKRSSGSFCYCHPDSETDEDEEEGDEQQRLLNTPRRKKLKSTSKYIYQTLFLNGENSDIKICALGEEWSLHKIYLCQSGYFSSMFSGSWKESSMNIIELEIPDQNIDVEALQVAFGSLYRDDVLIKPSRVVAILAAACLLQLDGLIQQCGETMKETVNVKTVCGYYTSAGTYGLDSVKKKCLEWLLNNLMTHQNVELFKELSINVMKQLIGSSNLFVMQVEMDIYTALKKWMFLQLVPSWNGSLKQLLTETDVWFSKQRKDFEGMAFLETEQGKPFVSVFRHLRLQYIISDLASARIIEQDAVVPSEWLSSVYKQQWFAMLRAEQDSEVGPQEINKEELEGNSMRCGRKLAKDGEYCWRWTGFNFGFDLLVTYTNRYIIFKRNTLNQPCSGSVSLQPRRSIAFRLRLASFDSSGKLICSRTTGYQILTLEKDQEQVVMNLDSRLLIFPLYICCNFLYISPEKKN
chain 2: MDPTGSQLDSDFSQQDTPCLIIEDSQPESQVLEDDSGSHFSMLSRHLPNLQTHKENPVLDVVSNPEQTAGEERGDGNSGFNEHLKENKVADPVDSSNLDTCGSISQVIEQLPQPNRTSSVLGMSVESAPAVEEEKGEELEQKEKEKEEDTSGNTTHSLGAEDTASSQLGFGVLELSQSQDVEENTVPYEVDKEQLQSVTTNSGYTRLSDVDANTAIKHEEQSNEDIPIAEQSSKDIPVTAQPSKDVHVVKEQNPPPARSEDMPFSPKASVAAMEAKEQLSAQELMESGLQIQKSPEPEVLSTQEDLFDQSNKTVSSDGCSTPSREEGGCSLASTPATTLHLLQLSGQRSLVQDSLSTNSSDLVAPSPDAFRSTPFIVPSSPTEQEGRQDKPMDTSVLSEEGGEPFQKKLQSGEPVELENPPLLPESTVSPQASTPISQSTPVFPPGSLPIPSQPQFSHDIFIPSPSLEEQSNDGKKDGDMHSSSLTVECSKTSEIEPKNSPEDLGLSLTGDSCKLMLSTSEYSQSPKMESLSSHRIDEDGENTQIEDTEPMSPVLNSKFVPAENDSILMNPAQDGEVQLSQNDDKTKGDDTDTRDDISILATGCKGREETVAEDVCIDLTCDSGSQAVPSPATRSEALSSVLDQEEAMEIKEHHPEEGSSGSEVEEIPETPCESQGEELKEENMESVPLHLSLTETQSQGLCLQKEMPKKECSEAMEVETSVISIDSPQKLAILDQELEHKEQEAWEEATSEDSSVVIVDVKEPSPRVDVSCEPLEGVEKCSDSQSWEDIAPEIEPCAENRLDTKEEKSVEYEGDLKSGTAETEPVEQDSSQPSLPLVRADDPLRLDQELQQPQTQEKTSNSLTEDSKMANAKQLSSDAEAQKLGKPSAHASQSFCESSSETPFHFTLPKEGDIIPPLTGATPPLIGHLKLEPKRHSTPIGISNYPESTIATSDVMSESMVETHDPILGSGKGDSGAAPDVDDKLCLRMKLVSPETEASEESLQFNLEKPATGERKNGSTAVAESVASPQKTMSVLSCICEARQENEARSEDPPTTPIRGNLLHFPSSQGEEEKEKLEGDHTIRQSQQPMKPISPVKDPVSPASQKMVIQGPSSPQGEAMVTDVLEDQKEGRSTNKENPSKALIERPSQNNIGIQTMECSLRVPETVSAATQTIKNVCEQGTSTVDQNFGKQDATVQTERGSGEKPVSAPGDDTESLHSQGEEEFDMPQPPHGHVLHRHMRTIREVRTLVTRVITDVYYVDGTEVERKVTEETEEPIVECQECETEVSPSQTGGSSGDLGDISSFSSKASSLHRTSSGTSLSAMHSSGSSGKGAGPLRGKTSGTEPADFALPSSRGGPGKLSPRKGVSQTGTPVCEEDGDAGLGIRQGGKAPVTPRGRGRRGRPPSRTTGTRETAVPGPLGIEDISPNLSPDDKSFSRVVPRVPDSTRRTDVGAGALRRSDSPEIPFQAAAGPSDGLDASSPGNSFVGLRVVAKWSSNGYFYSGKITRDVGAGKYKLLFDDGYECDVLGKDILLCDPIPLDTEVTALSEDEYFSAGVVKGHRKESGELYYSIEKEGQRKWYKRMAVILSLEQGNRLREQYGLGPYEAVTPLTKAADISLDNLVEGKRKRRSNVSSPATPTASSSSSTTPTRKITESPRASMGVLSGKRKLITSEEERSPAKRGRKSATVKPGAVGAGEFVSPCESGDNTGEPSALEEQRGPLPLNKTLFLGYAFLLTMATTSDKLASRSKLPDGPTGSSEEEEEFLEIPPFNKQYTESQLRAGAGYILEDFNEAQCNTAYQCLLIADQHCRTRKYFLCLASGIPCVSHVWVHDSCHANQLQNYRNYLLPAGYSLEEQRILDWQPRENPFQNLKVLLVSDQQQNFLELWSEILMTGGAASVKQHHSSAHNKDIALGVFDVVVTDPSCPASVLKCAEALQLPVVSQEWVIQCLIVGERIGFKQHPKYKHDYVSH

Variants of: B1
Assay: IP-MS (FLAG immunoprecipitation, MS/MS); HEK293T, 24 hr after transfection; read off a plot

| screen value | Variant |
| --- | --- |
| ~180 | chain 1 E142K |
